Reference: paper PMC4231769, “The Werner syndrome protein limits the error-prone 8-oxo-dG lesion bypass activity of human DNA polymerase kappa” (Nucleic Acids Research, 2014)

T1: GST-tagged hpol κ^19-526 (human DNA polymerase kappa catalytic core) (human, UniProt Q9UBT6 19-526)
T1 construct: human DNA polymerase kappa (hpol κ), residues 19-526, catalytic core; The pull-downs used GST-tagged hpol κ^19-526; The polymerase assays (functional rows) name hpol κ^19-526 without a GST tag; also called GST-hpol κ; source: recombinant, purified
T1 sequence (looked up): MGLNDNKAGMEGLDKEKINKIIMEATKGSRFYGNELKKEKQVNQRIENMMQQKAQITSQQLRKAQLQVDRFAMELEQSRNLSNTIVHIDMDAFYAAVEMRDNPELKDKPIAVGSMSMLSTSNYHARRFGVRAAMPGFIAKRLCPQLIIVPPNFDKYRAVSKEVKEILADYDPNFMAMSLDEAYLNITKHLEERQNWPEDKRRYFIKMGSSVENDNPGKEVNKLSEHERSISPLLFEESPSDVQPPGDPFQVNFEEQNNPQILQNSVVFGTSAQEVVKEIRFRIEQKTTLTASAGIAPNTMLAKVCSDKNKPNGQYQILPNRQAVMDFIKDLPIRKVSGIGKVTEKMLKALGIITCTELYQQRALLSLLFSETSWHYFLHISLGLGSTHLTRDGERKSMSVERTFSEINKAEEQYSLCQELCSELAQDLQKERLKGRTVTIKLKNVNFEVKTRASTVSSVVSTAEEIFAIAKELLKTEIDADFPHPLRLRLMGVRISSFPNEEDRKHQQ


Target: T1, GST-tagged hpol κ^19-526 (human DNA …)
Assay: pull-down; GST-hpol κ^19-526 on glutathione Sepharose beads (~1200 pmol), WRN construct 1 μM (~500 pmol) in 500 μl; 25 mM HEPES pH 7.5, 0.1 M NaCl, 10% glycerol, 5 mM β-ME; 16 h at 4°C; Coomassie-stained SDS-PAGE; specific binding = fraction bound to GST-hpol κ beads divided by fraction bound to GST-coated beads
Conditions: both partners purified

Row | Binder | fold bound to GST-hpol κ beads over GST beads [fold] | binding result
1 | WRN^949-1092 RQC domain (domain or fragment, UniProt Q14191 949-1092, looked up, source: E. coli BL21 (DE3) Gold, purified (Ni Sepharose, Glutathione Sepharose, HRV 3C cleavage); not shown: 6xHis, N-terminal, cleaved; GST, N-terminal, cleaved) MDDSEDTSWDFGPQAFKLLSAVDILGEKFGIGLPILFLRGSNSQRLADQYRRHSLFGTGKDQTESWWKAFSRQLITEGFLVEVSRYNKFMKICALTKKGRNWLHKANTESQSLILQANEELCPKKLLLPSSKTVSSGTKEHCYN | ~3 | 
2 | WRN^1-333 exo domain (domain or fragment, UniProt Q14191 1-333, looked up, also called WRN exo) MSEKKLETTAQQRKCPEWMNVQNKRCAVEERKACVRKSVFEDDLPFLEFTGSIVYSYDASDCSFLSEDISMSLSDGDVVGFDMEWPPLYNRGKLGKVALIQLCVSESKCYLFHVSSMSVFPQGLKMLLENKAVKKAGVGIEGDQWKLLRDFDIKLKNFVELTDVANKKLKCTETWSLNSLVKHLLGKQLLKDKSIRCSNWSKFPLTEDQKLYAATDAYAGFIIYRNLEILDDTVQRFAINKEEEILLSDMNKQLTSISEEVMDLAKHLPHAFSKLENPRRVSILLKDISENLYSLRRMIIGSTNIETELRPSNNLNLLSFEDSTTGGVQQKQI |  | binds
3 | WRN^500-1092 ATPase/RQC construct (domain or fragment, source: E. coli BL21 (DE3) Gold, purified (Ni Sepharose, Glutathione Sepharose, HRV 3C cleavage); not shown: 6xHis, N-terminal, cleaved; GST, N-terminal, cleaved) not shown | ~2 | 
